The values below come from the Immune Epitope Database (IEDB).

The target of one experiment is HLA-A*02:11. Briefly: IEDB peptide-MHC binding, purified MHC/direct/fluorescence; filed as Kd, often an IC50 or EC50 that approximates it; ≥ and ≤ were set here for values at or beyond the usual limits of such assays.
Another experiment deals with HLA-A*24:03. Described as above. As to conditions: source organism: Ebola virus Yambio0403.
For the next experiment, the target named is HLA-A*02:12. The description is as above.
Experiment [1] deals with HLA-B*15:01. The experiment is described as above. The note with it: source organism: Zaire ebolavirus.
The target of the next experiment is HLA-A*29:02. The experiment is described as above. The note with it: source organism: Ebola virus Yambio0403.
A further experiment concerns the target HLA-A*02:16. The description is as above.
Experiment [2] addresses HLA-A*03:01. The experiment is described as above.
A further experiment concerns the target HLA-A*68:02. The experiment is described as above.
The target in the next experiment is HLA-A*02:19. The description is as above.
The next experiment addresses HLA-A*02:03. Described as above.
Another experiment addresses HLA-B*27:03. Briefly: IEDB peptide-MHC binding, purified MHC/competitive/fluorescence; filed as Kd, often an IC50 or EC50 that approximates it; ≥ and ≤ were set here for values at or beyond the usual limits of such assays.
In the next experiment the target is HLA-B*39:01. Described as above.
Experiment [3] addresses HLA-A*02:01. Described as above.
Experiment [4] deals with HLA-B*58:01. The experiment is described as above.
Experiment [5] has as its target HLA-B*46:01. Described as above.
The target of the next experiment is HLA-A*69:01. The description is as above.
The target of experiment [6] is HLA-B*18:01. Described as above.
The target in experiment [7] is HLA-A*26:01. The experiment is described as above.
Another experiment addresses HLA-B*45:06. The description is as above. The note with it: source organism: Influenza A virus H3N2.
A further experiment deals with HLA-A*68:23. Described as above. As to conditions: source organism: Influenza A virus H3N2.
A further experiment concerns the target HLA-B*15:42. The experiment is described as above. The note with it: source organism: Influenza A virus H3N2.
In experiment [8] the target is HLA-A*31:01. The description is as above. The note with it: source organism: Influenza A virus H3N2.
Experiment [9] has as its target HLA-A*03:01. The experiment is described as above. The note with it: source organism: Influenza A virus H3N2.
Another experiment has as its target HLA-B*83:01. Described as above. The note with it: source organism: Influenza A virus H3N2.
A further experiment deals with HLA-A*26:03. Briefly: IEDB peptide-MHC binding, purified MHC/direct/fluorescence; filed as Kd, often an IC50 or EC50 that approximates it; ≥ and ≤ were set here for values at or beyond the usual limits of such assays. The note with it: source organism: Burkholderia mallei ATCC 23344.
For a further experiment, the target named is HLA-A*11:01. The description is as above. As to conditions: source organism: Burkholderia mallei.
Another experiment addresses HLA-B*27:05. The experiment is described as above. The note with it: source organism: Burkholderia mallei.
The target in experiment [10] is HLA-A*02:01. Described as above. The note with it: source organism: Burkholderia mallei.
The target of a further experiment is HLA-A*01:01. The description is as above. The note with it: source organism: Burkholderia mallei.
A further experiment deals with HLA-B*48:01. The experiment is described as above. The note with it: source organism: Burkholderia mallei.
A further experiment concerns the target HLA-B*15:17. Described as above. As to conditions: source organism: Burkholderia mallei.
In experiment [11] the target is HLA-B*58:01. The experiment is described as above. The note with it: source organism: Burkholderia mallei.
The target in experiment [12] is HLA-A*31:01. The description is as above. As to conditions: source organism: Burkholderia mallei.
Experiment [13] deals with HLA-B*46:01. Described as above. As to conditions: source organism: Burkholderia mallei.
The target of another experiment is HLA-B*40:01. The experiment is described as above. The note with it: source organism: Burkholderia mallei.
The target in the next experiment is HLA-B*07:02. The experiment is described as above. The note with it: source organism: Burkholderia mallei.
The target in a further experiment is HLA-B*57:01. The description is as above. The note with it: source organism: Burkholderia mallei.
For experiment [14], the target named is HLA-B*18:01. The experiment is described as above. As to conditions: source organism: Burkholderia mallei.
For experiment [15], the target named is HLA-A*26:01. The experiment is described as above. As to conditions: source organism: Burkholderia mallei ATCC 23344.
The target of experiment [16] is HLA-B*15:01. Briefly: IEDB peptide-MHC binding, purified MHC/competitive/fluorescence; filed as Kd, often an IC50 or EC50 that approximates it; ≥ and ≤ were set here for values at or beyond the usual limits of such assays.
A further experiment has as its target HLA-B*51:01. The description is as above. The note with it: source organism: Orthohantavirus andesense.
Experiment [17] deals with HLA-B*58:01. Nature of the experiment: IEDB peptide-MHC binding, purified MHC/competitive/fluorescence; ≥ and ≤ were set here for values at or beyond the usual limits of such assays. As to conditions: source organism: Homo sapiens.
[18] abbreviates: source organism: Ebola virus Yambio0403.
Where [19] appears, read: source organism: Zaire ebolavirus.
The mark [20] stands for this setting: source organism: Burkholderia mallei.
Where [21] appears, read: source organism: Orthohantavirus puumalaense.
Setting [22] is: source organism: Orthohantavirus andesense.

In general, Kd refers to the equilibrium constant for the complex coming apart. Read a high Kd as a looser complex. With ESLLHQASW, the equilibrium dissociation constant (Kd) in the experiment with HLA-A*02:11 (setting [18]), in the experiment with HLA-A*24:03, with HLA-A*02:12 (setting [18]), with HLA-B*15:01 [1], in the experiment with HLA-A*29:02 and with HLA-A*02:16 (setting [18]) was at least 20 µM each time. Moreover, the dissociation constant Kd with HLA-A*03:01 [2] (setting [18]), with HLA-A*68:02 (setting [18]), with HLA-A*02:19 (setting [18]), with HLA-A*02:03 (setting [18]), with HLA-B*27:03 (setting [19]) and with HLA-B*39:01 (setting [19]) was at least 20 µM in each case. Also, the dissociation constant Kd with HLA-A*02:01 [3] (setting [19]) is at least 20 µM; with HLA-B*58:01 [4] (setting [19]), 0.0021 µM; with HLA-B*46:01 [5] (setting [19]), at least 20 µM; in the experiment with HLA-A*69:01 (setting [19]), at least 20 µM; with HLA-B*18:01 [6] (setting [19]), at least 20 µM; with HLA-A*26:01 [7] (setting [19]), at least 20 µM.

Consider FSFGGFTFK, for which the equilibrium dissociation constant (Kd) is at least 5 µM with HLA-B*45:06; 0.0219 µM with HLA-A*68:23; at least 5 µM with HLA-B*15:42; at most 0.001 µM with HLA-A*31:01 [8]; 0.0037 µM with HLA-A*03:01 [9]; at least 5 µM in the experiment with HLA-B*83:01.

On to IQRRGAQFQ, for which the Kd with HLA-A*26:03, with HLA-A*11:01, in the experiment with HLA-B*27:05, with HLA-A*02:01 [10], with HLA-A*01:01 and in the experiment with HLA-B*48:01 was at least 20 µM in each case. Moreover, the Kd in the experiment with HLA-B*15:17, with HLA-B*58:01 [11], with HLA-A*31:01 [12], in the experiment with HLA-B*46:01 [13], in the experiment with HLA-B*40:01 and with HLA-A*03:01 [2] (setting [20]) was at least 20 µM in each case. Further, the equilibrium dissociation constant (Kd) with HLA-A*68:02 (setting [20]) is at least 20 µM; with HLA-B*07:02, at least 20 µM; in the experiment with HLA-B*57:01 it was at least 20 µM; with HLA-B*18:01 [14] it was at least 20 µM; with HLA-A*26:01 [15], at least 20 µM; with HLA-B*15:01 [16] (source organism: Burkholderia mallei SAVP1) it was 3.18 µM.

As to QIQAGNFHW, the dissociation constant Kd with HLA-A*02:11 (setting [21]), in the experiment with HLA-A*02:12 (setting [21]), with HLA-A*02:16 (setting [21]), with HLA-A*03:01 [2] (setting [21]), with HLA-A*68:02 (setting [21]) and with HLA-A*02:19 (setting [21]) was at least 20 µM each time. Further, the dissociation constant Kd with HLA-A*02:03 (setting [21]), in the experiment with HLA-B*27:03 (setting [22]), in the experiment with HLA-B*51:01, with HLA-B*39:01 (setting [22]), in the experiment with HLA-A*02:01 [3] (setting [22]) and in the experiment with HLA-B*15:01 [16] (setting [22]) was at least 20 µM throughout. For the same sequence, the dissociation constant (Kd) with HLA-B*58:01 [4] (setting [22]) is 0.0022 µM; in the experiment with HLA-B*46:01 [5] (setting [22]), at least 20 µM; in the experiment with HLA-A*69:01 (setting [22]) it was at least 20 µM; with HLA-B*18:01 [6] (setting [22]), at least 20 µM; in the experiment with HLA-A*26:01 [7] (setting [22]), at least 20 µM.

One may read the IC50 as the midpoint of a concentration-inhibition curve. In the experiment with HLA-B*58:01 [17], QSSGSSSSGF yielded an IC50 of at least 20 µM.
